Assay results published in US20210206842A1 (NATIONAL RESEARCH COUNCIL OF CANADA, published 2021).

Legend:
VHH FC5 [1] = biological target: T1, VHH FC5; test: ELISA, hybridoma supernatant on coated purified FC5-VHH
T1 construct: put together from its FR and CDR entries; also called FC5-VHH; FC5 control
Description: (§1) Screening. Hybridoma supernatants were screened by ELISA to detect specific binders. To this end, 96-well half-area plates (Costar #3690) were coated with 25 μl of FC5DIE3IR or FC5-VHH or FC5-hFc-1X0 at 5 μg/ml in PBS and incubated overnight at 4° C. Microplates were washed 3 times with PBS, blocked with PBS-BSA 1%, and 25 μl of hybridoma supernatants were added and incubated at 37° C., 5% CO₂ for 2 hours. […] After 4 washes with PBS-Tween 20 0.05%, 25 μl of a 1 mg/ml pNPP substrate solution was added and further incubated for one hour at 37° C.

[2] = biological target: T2, FC5DIE3IR recombinant protein; test: ELISA, hybridoma supernatant on coated purified FC5DIE3IR
T2 construct: Made in CHO-3E7 cells; also called FC5DIE31R; FC5DIE3R
Description: as §1

VHH FC5 [3] = biological target: T1, VHH FC5; test: SPR, single cycle kinetics, Fc-captured mAb, FC5 flowed, 25 C
Description: (§2) HBS-EP running buffer used for SPR experiments. […] Test binding experiments of FC5 control and FC5DIE3IR involved flowing 1 μM concentrations of SEC-pure material over the mAb surface at a flow rate of 30 μl/min for 5 min. Surfaces could be regenerated using 10 mM glycine, pH 1.7, with a 120 sec pulse at 20 μl/min. All SPR experiments were evaluated with Biacore T200 Software v 3.0. […] Regeneration conditions were the same as above. Data were fit to a 1:1 binding model and analyzed using the Biacore T200 Software v3.0.

peptide #2a (20 aa) = biological target: T3, peptide #2a (20 aa) (human); test: ELISA on coated P2a, mAb at the dilutions 1:1000, 1:5000 and 1:10000, Abs 450nm
T3 construct: Custom-synthesized (Biomatik); also called pep #2a; P2a
T3 peptide: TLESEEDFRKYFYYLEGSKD
Description: (§3) The peptides were custom-synthesized (Biomatik) and tested for antibody binding by ELISA. […] The wells were blocked with 1% BSA in TBS-T for 30 min and then incubated with 1:1000 dilution of anti-hNaᵥ1.7 mAb at room temperature (RT) for one hr.

peptide #2b (20 aa) = biological target: T4, peptide #2b (20 aa) (human); test: ELISA on coated P2b, mAb at the dilutions 1:1000, 1:5000 and 1:10000, Abs 450nm
T4 construct: Custom-synthesized (Biomatik); also called pep #2b; P2b
T4 peptide: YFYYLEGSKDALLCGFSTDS
Description: as §3

human Nav1.7 polypeptide [4] = biological target: T5, human Nav1.7 polypeptide (human, UniProt Q15858 1-1988); test: cell ELISA, hybridoma supernatant on live CHO cells expressing human Nav1.7, duplicate 1
T5 construct: also called hNav1.7; SCN9A
Description: (§4) Cell-ELISA. Sterile 96-well plates (Costar #3595) were pre-treated with 50 μl/well of branched polyethyleneimine (PEI, Sigma Cat #408727) at 25 μg/ml in PBS for 30 min at room temperature. PEI was removed and CHO-3E7 or hNAᵥ1.7-CHO (ChanTest cat #CT4003) were seeded at 6×10⁵ cells per well in FreeStyle F17 Expression Medium (Gibco Cat #A1383501) and incubated overnight at 37° C., 5% CO₂. Microplates were blocked with Starting block (Thermofisher Cat #37538) for 30 min at room temperature, and 50 μl of hybridoma supernatants were added and incubated at 4° C. for 3 h. […] After 10 washes with PBS, 50 μl of TMB substrate solution (Pierce Cat #34021) was added and further incubated for 60 min at room temperature.

human Nav1.7 polypeptide [5] = biological target: T5, human Nav1.7 polypeptide; test: cell ELISA, hybridoma supernatant on live CHO cells expressing human Nav1.7, duplicate 2
Description: as §4

peptide #40a (40 aa) = biological target: T6, peptide #40a (40 aa) (human); test: ELISA on coated peptide or FC5DIE3IR, mAb detected with HRP anti-mouse Fc, Abs 450nm
T6 construct: Custom-synthesized (Biomatik); also called pep #40a; P40a
T6 peptide: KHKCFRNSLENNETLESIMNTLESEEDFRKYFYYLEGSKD
Description: as §3

peptide #40b (40 aa) = biological target: T7, peptide #40b (40 aa) (human); test: as above
T7 construct: Custom-synthesized (Biomatik); also called pep #40b; P40b
Description: as §3

[6] = biological target: T2, FC5DIE3IR recombinant protein; test: SPR (Biacore T200), single cycle kinetics, Fc-captured mAb, FC5DIE3IR flowed (320 nM-20 nM), 1:1 model, 25 C
Description: as §2

[7] = biological target: T2, FC5DIE3IR recombinant protein; test: ELISA on coated FC5DIE3IR, serial dilutions of purified mAb; fit One site - Specific binding with Hill slope
Description: as §1
(§5) Evaluation of apparent affinity in ELISA. Purified antibodies were assessed for their binding activity by ELISA in a dose-dependent binding curve. Serial 1/3 dilutions of purified mAbs starting at 120 nM were applied onto wells and ELISA was performed as described above (screening section). The data were analyzed with GraphPad Prism software using one-site specific binding-with Hill slope non-linear regression curve fit model to determine Bₘₐₓ (maximum specific binding) and Kdₐₚₚ (concentration needed to achieve a half-maximum binding at equilibrium) for each mAb tested.

[8] = biological target: T2, FC5DIE3IR recombinant protein; test: ELISA on coated FC5DIE3IR, serial dilutions of purified mAb, OD 405 nm; fit One site - Specific binding with Hill slope; apparent Kd in the unit of the concentration axis (nM), the table itself prints no unit
Description: as §1, §5

human Nav1.7 polypeptide [9] = biological target: T5, human Nav1.7 polypeptide; test: cell-based or functional assay
[10] = biological target: T2, FC5DIE3IR recombinant protein; test: SPR, multiple cycle kinetics, VHH over immobilized FC5DIE3IR
[11] = biological target: T2, FC5DIE3IR recombinant protein; test: SPR (Biacore T200), VHH flowed over immobilized FC5DIE3IR, steady state fit, 25 C
Excerpt: Surface Plasmon Resonance for VHH antibodies. […] Monomeric VHH fractions were collected and protein concentration determined by measuring A280 measurement. Using a Biacore T200 instrument (GE Healthcare), approximately 500-1000 RUs of FC5DIE3IR, FC5 and an irrelevant VHH (2A3-H4) were immobilized on a CM5 Series S sensor chip (GE Healthcare) at pH 4.0 using standard amine coupling according to the manufacturer's instructions (GE Healthcare). […] Surfaces were regenerated by washing with a 120 s pulse of 10 mM glycine pH 1.5. Data were analyzed with Biacore T200 Software v 3.0 and affinities determined using steady state binding or a 1:1 binding model.
Surface Plasmon Resonance (SPR).

[12] = biological target: T2, FC5DIE3IR recombinant protein; test: SPR steady-state plot (Req against Conc up to 5e-6), VHH DI-D over immobilized FC5DIE3IR

T1 sequence (VHH, as listed by the source): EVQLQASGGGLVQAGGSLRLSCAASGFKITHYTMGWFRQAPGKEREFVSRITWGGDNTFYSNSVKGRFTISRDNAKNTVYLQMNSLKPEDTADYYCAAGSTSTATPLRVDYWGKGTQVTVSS

B1: anti-hNav1.7 mAb 2G11 (antibody, V domains shown)
VH: QVQLQQPGAELVKPGASVKLSCKASGYTFTTYWMHWVKQRPGQGLEWIGEINPSNGRANYNEKFKSKATLTVDKSSSTAYMQLSSLTSEDSAVYYCLRSLGYFDYWGQGTTLTVSS
VL: DVVMTQSPLSLPVSLGDQASISCRSSQSLVHSNGNTYLHWYLQKAGQSPKFLIYKVSNRFSGVPDRFSGSGSGTDFTLKISRVEAEDLGVYFCSQSTHVPYTFGGGTKLEIK
What does the source list for B1?
ELISA signal (OD 405 nm) (VHH FC5 [1]): 0.021 OD 405 nm; ELISA signal (OD 405 nm) [2]: 0.86 OD 405 nm; binding result (VHH FC5 [3]): no binding; binding result (peptide #2a (20 aa)): no binding (tested: 1:1000 dilution); binding result (peptide #2b (20 aa)): no binding (tested: 1:1000 dilution); cell ELISA signal (OD 450 nm) (human Nav1.7 polypeptide [4]): 0.041 OD 450 nm; cell ELISA signal (OD 450 nm) (human Nav1.7 polypeptide [5]): 0.049 OD 450 nm; binding result (peptide #40a (40 aa)): binds; binding result (peptide #40b (40 aa)): no binding; Kd [6]: 55.1 nM; koff [6]: 0.000526 s⁻¹; kon [6]: 9560 M⁻¹ s⁻¹; Bmax [7]: 1.84 OD405 nm; Kd [8]: 0.847 nM

B2: VHH DI-D (VHH)
VHH: QVKLEESGGGLVQPGGSLKLSCVASGFAFSSAPMDWVRKAPGKDVEWLSTIESDQDHTIYYANSVKGRFTISRDDVQNILYLQMNDLKIEDTATYYCQKRGEKKTRGQGTQVTVSS
notes: From the naive LAC-M library; soluble tagged monomer in protein ELISA, SPR and patch clamp; also called phage D; clone D; not shown: 6xHis and c-Myc tags on the soluble monomer
Which “concentration response relationship (IC50), hNav1.7 currents” value (human Nav1.7 polypeptide [9]) does the source give for B2 here?
Its value is 1480 nM.

And the Kd [10]?
Its Kd is 2000 nM.

And the Kd [11]?
Its Kd is 1930 nM.

What about the Kd [12] of the same binder?
Its Kd is 2040 nM.
